The values below come from publication PMC4267653, “DNA cleavage by CgII and NgoAVII requires interaction between N- and R-proteins and extensive nucleotide hydrolysis” (Nucleic Acids Research, 2014).

In general, stoichiometry N refers to the number of molecules, sites or subunits per partner or assembly. What is called Kd is the constant that tells how readily two partners part at equilibrium.

Series [1] concerns the target R.CglI (containing a StrepII-tag), co-expressed with N.CglI (Corynebacterium glutamicum ATCC 13032). Put plainly: densitometry of SDS-PAGE; purified RN.CglI complex resolved by SDS/PAGE, molar ratio of the two bands.
The target is the same in series [2]. The series is described as follows: SEC + other: SAXS; purified co-expressed RN.CglI complex; molecular weight close to the sum of the R.CglI and N.CglI dimers.
In series [3] the target is N.CglI (containing a His6-tag), co-expressed with R.CglI (Corynebacterium glutamicum ATCC 13032). Described as above.
Series [4] has as its target N.CglI (Corynebacterium glutamicum ATCC 13032). Put plainly: SAXS; full-length R- and N-proteins in 20 mM Tris-HCl pH 8.0, 400 mM KCl, 0.1 mM EDTA, 1 mM DTT; molecular weight from scattering data (MoW).
For series [5] the target is unchanged. Put plainly: SEC; gel filtration of single proteins and domains, Superdex 200 HR, room temperature, 20 mM Tris-HCl pH 8.0, 300 mM NaCl, 5 mM 2-mercaptoethanol; 20 μM (monomer) loading concentration.
For series [6], the target named is R.CglI (Corynebacterium glutamicum ATCC 13032).
The target of series [7] is N.CglI isolated Z1 domain (Corynebacterium glutamicum ATCC 13032). Put plainly: SEC; gel filtration of single proteins and domains, Superdex 200 HR, room temperature, 20 mM Tris-HCl pH 8.0, 300 mM NaCl, 5 mM 2-mercaptoethanol; 20 μM (monomer) loading concentration. In general terms: Size exclusion chromatography separates by hydrodynamic size, large species first.
The target in series [8] is N.CglI isolated Z1-C domain (Corynebacterium glutamicum ATCC 13032). The description is as above.
For series [9], the target named is N.CglI-DEAD-Z1 domain (Corynebacterium glutamicum ATCC 13032). The description is as above.
The target of series [10] is R.CglI (Corynebacterium glutamicum ATCC 13032). Put plainly: SAXS; full-length R- and N-proteins in 20 mM Tris-HCl pH 8.0, 400 mM KCl, 0.1 mM EDTA, 1 mM DTT; molecular weight from scattering data (MoW).
Series [11] shares this target. The series is described as follows: SEC; gel filtration of single proteins and domains, Superdex 200 HR, room temperature, 20 mM Tris-HCl pH 8.0, 300 mM NaCl, 5 mM 2-mercaptoethanol; 20 μM (monomer) loading concentration.
For series [12], the target named is R.NgoAVII (Neisseria gonorrhoeae FA1090). The series is described as follows: SAXS; full-length R- and N-proteins in 20 mM Tris-HCl pH 8.0, 400 mM KCl, 0.1 mM EDTA, 1 mM DTT; molecular weight from scattering data (MoW).
Series [13] shares this target. The series is described as follows: SEC; gel filtration of single proteins and domains, Superdex 200 HR, room temperature, 20 mM Tris-HCl pH 8.0, 300 mM NaCl, 5 mM 2-mercaptoethanol; 20 μM (monomer) loading concentration.
Series [14] deals with R.CglI (Corynebacterium glutamicum ATCC 13032). Put plainly: EMSA. The following applies: no metal, 0.1 mM EDTA; EMSA: 1 nM 33P-DNA, 1-500 nM protein monomer, 40 mM Tris-acetate pH 8.3 (25°C), 0.1 mM EDTA (NgoAVII: 5 mM Ca-acetate instead), 0.1 mg/ml BSA, 10% glycerol ….
In series [15] the test system is R.CglI in RN.CglI complex;N.CglI (Corynebacterium glutamicum ATCC 13032;Corynebacterium glutamicum ATCC 13032). The series is described as follows: EMSA. The following applies: EMSA: 1 nM 33P-DNA, 1-500 nM protein monomer, 40 mM Tris-acetate pH 8.3 (25°C), 0.1 mM EDTA (NgoAVII: 5 mM Ca-acetate instead), 0.1 mg/ml BSA, 10% glycerol …. For orientation: Mobility shift assays separate free from complexed probe on a gel.

Series [16] concerns the molecule itself. Put plainly: SEC; gel filtration of single proteins and domains, Superdex 200 HR, room temperature, 20 mM Tris-HCl pH 8.0, 300 mM NaCl, 5 mM 2-mercaptoethanol; 20 μM (monomer) loading concentration.

Turning to “N.CglI (containing a His6-tag), co-expressed with R.CglI (enzyme)”, in series [1], the stoichiometry N (N.CglI per R.CglI) is 0.75. Besides, the stoichiometry N (N.CglI per R.CglI (2:2)) in [2] worked out at 1. Moreover, in series [3], the stoichiometry N was 2.

As for N.CglI (enzyme), the stoichiometry N in series [4] and in series [5] was 2 each time. Further, in series [6], the ATP hydrolysis rate of N.CglI at saturating ATP (4 mM) and optimal concentrations of DNA and R.CglI (malachite green assay) came to 176 ATP/s.

Turning to “N.CglI isolated Z1 domain (domain or fragment)”, in series [7], the stoichiometry N was found to be 2.

Consider “N.CglI isolated Z1-C domain (domain or fragment)”, for which the stoichiometry N in [8] was 2.

In series [9], “N.CglI-DEAD-Z1 domain (domain or fragment)” showed a stoichiometry N of 2.

As for “R.CglI (containing a StrepII-tag), co-expressed with N.CglI (enzyme)”, in series [2], the stoichiometry N worked out at 2.

For R.CglI (enzyme), the stoichiometry N in [10] and in series [11] was 2 each time.

Take R.NgoAVII (enzyme): the stoichiometry N in series [12] and in [13] was 2 throughout.

Consider “TACAATCGATAATAGCCGCCGTGCGAGCCCATT (double strand) [33 bp cognate duplex]”, for which the values for the Kd in series [14] and in series [15] were 9.2 nM and 1.9 nM, respectively.

B1: R.CglI isolated PLD domain (domain or fragment)
chain: PLDKFFDKELKDTHHLDITVGYISEKSLQYLLLIAGTHPDLTITLTCGMHAREGMTAAQLHHARVLHDYLSDHDRGGVFVIPRLRYHGKIYLFHKNQHTDPIAYIGSANLSAIVPGYTSTFETGVILDPAPEDLVLH
For the molecule B1, the “stoichiometry N” value in [16] worked out at 2.
